Assay results reported in publication PMC5009806 (2016).

Target: amyloid beta monomer (Homo sapiens, UniProt P05067)
Test: SPR

Kd: 18 nM
B1: Gantenerumab (antibody, V domains shown)
VH: QVELVESGGGLVQPGGSLRLSCAASGFTFSSYAMSWVRQAPGKGLEWVSAINASGTRTYYADSVKGRFTISRDNSKNTLYLQMNSLRAEDTAVYYCARGKGNTHKPYGYVRYFDVWGQGTLVTVSS
VL: DIVLTQSPATLSLSPGERATLSCRASQSVSSSYLAWYQQKPGQAPRLLIYGASSRATGVPARFSGSGSGTDFTLTISSLEPEDFATYYCLQIYNMPITFGQGTKVEIK
